{
  "source": "the MegaScale stability set (Tsuboyama et al. 2023)",
  "parents": {"B1": {"name": "EEHEE_rd3_1049 (parent)", "chain": "TTVKLGDIKVTFDNPEKAKKYAQKLAKIYQLTVHVHGDTIHVK"}},
  "data": [
    {"variants_of": "B1", "assay": "folding stability dG (cDNA display proteolysis); higher = more stable", "conditions": "PBS, room temperature", "units": {"folding stability dG": "kcal/mol"}, "values": [
      {"variant": "TTVKLGDIKVTFDNPELAKKYAQKLAKIYQLTVHVHGDTIHVK", "note": "[K17L]", "folding stability dG": 2.17},
      {"variant": "TTVKLGDIKVTFDNPEAAKKYAQKLAKIYQLTVHVHGDTIHVK", "note": "[K17A]", "folding stability dG": 2.39},
      {"variant": "TTVKLGDIKVTFDNPEHAKKYAQKLAKIYQLTVHVHGDTIHVK", "note": "[K17H]", "folding stability dG": 2.02},
      {"variant": "TTVKLGDIKVTFDNPEGAKKYAQKLAKIYQLTVHVHGDTIHVK", "note": "[K17G]", "folding stability dG": 1.25},
      {"variant": "TTVKLGDIKVTFDNPEFAKKYAQKLAKIYQLTVHVHGDTIHVK", "note": "[K17F]", "folding stability dG": 1.84},
      {"variant": "TTVKLGDIKVTFDNPEMAKKYAQKLAKIYQLTVHVHGDTIHVK", "note": "[K17M]", "folding stability dG": 2.2},
      {"variant": "TTVKLGDIKVTFDNPENAKKYAQKLAKIYQLTVHVHGDTIHVK", "note": "[K17N]", "folding stability dG": 1.91},
      {"variant": "TTVKLGDIKVTFDNPECAKKYAQKLAKIYQLTVHVHGDTIHVK", "note": "[K17C]", "folding stability dG": 3.1},
      {"variant": "TTVKLGDIKVTFDNPEEAKKYAQKLAKIYQLTVHVHGDTIHVK", "note": "[K17E]", "folding stability dG": 2.32},
      {"variant": "TTVKLGDIKVTFDNPESAKKYAQKLAKIYQLTVHVHGDTIHVK", "note": "[K17S]", "folding stability dG": 2.05},
      {"variant": "TTVKLGDIKVTFDNPERAKKYAQKLAKIYQLTVHVHGDTIHVK", "note": "[K17R]", "folding stability dG": 2.02},
      {"variant": "TTVKLGDIKVTFDNPETAKKYAQKLAKIYQLTVHVHGDTIHVK", "note": "[K17T]", "folding stability dG": 2.15},
      {"variant": "TTVKLGDIKVTFDNPEIAKKYAQKLAKIYQLTVHVHGDTIHVK", "note": "[K17I]", "folding stability dG": 2},
      {"variant": "TTVKLGDIKVTFDNPEQAKKYAQKLAKIYQLTVHVHGDTIHVK", "note": "[K17Q]", "folding stability dG": 2.21},
      {"variant": "TTVKLGDIKVTFDNPEVAKKYAQKLAKIYQLTVHVHGDTIHVK", "note": "[K17V]", "folding stability dG": 2},
      {"variant": "TTVKLGDIKVTFDNPEPAKKYAQKLAKIYQLTVHVHGDTIHVK", "note": "[K17P]", "folding stability dG": 0.853},
      {"variant": "TTVKLGDIKVTFDNPEDAKKYAQKLAKIYQLTVHVHGDTIHVK", "note": "[K17D]", "folding stability dG": 2.45},
      {"variant": "TTVKLGDIKVWFDNPEKAKKYAQKLAKIYQLTVHVHGDTIHVK", "note": "[T11W]", "folding stability dG": 2.74},
      {"variant": "TTVKLGDIKVVFDNPEKAKKYAQKLAKIYQLTVHVHGDTIHVK", "note": "[T11V]", "folding stability dG": 2.42},
      {"variant": "TTVKLGDIKVPFDNPEKAKKYAQKLAKIYQLTVHVHGDTIHVK", "note": "[T11P]", "folding stability dG": 1.05},
      {"variant": "TTVKLGDIKVSFDNPEKAKKYAQKLAKIYQLTVHVHGDTIHVK", "note": "[T11S]", "folding stability dG": 1.77},
      {"variant": "TTVKLGDIKVQFDNPEKAKKYAQKLAKIYQLTVHVHGDTIHVK", "note": "[T11Q]", "folding stability dG": 1.88},
      {"variant": "TTVKLGDIKVYFDNPEKAKKYAQKLAKIYQLTVHVHGDTIHVK", "note": "[T11Y]", "folding stability dG": 2.69},
      {"variant": "TTVKLGDIKVRFDNPEKAKKYAQKLAKIYQLTVHVHGDTIHVK", "note": "[T11R]", "folding stability dG": 2.24},
      {"variant": "TTVKLGDIKVTFKNPEKAKKYAQKLAKIYQLTVHVHGDTIHVK", "note": "[D13K]", "folding stability dG": 2.2},
      {"variant": "TTVKLGDIKVTFPNPEKAKKYAQKLAKIYQLTVHVHGDTIHVK", "note": "[D13P]", "folding stability dG": 1.58},
      {"variant": "TTVKLGDIKVTFQNPEKAKKYAQKLAKIYQLTVHVHGDTIHVK", "note": "[D13Q]", "folding stability dG": 2.1},
      {"variant": "TTVKLGDIKVTFANPEKAKKYAQKLAKIYQLTVHVHGDTIHVK", "note": "[D13A]", "folding stability dG": 2.11},
      {"variant": "TTVKLGDIKVTFRNPEKAKKYAQKLAKIYQLTVHVHGDTIHVK", "note": "[D13R]", "folding stability dG": 2.13},
      {"variant": "TTVKLGDIKVTFGNPEKAKKYAQKLAKIYQLTVHVHGDTIHVK", "note": "[D13G]", "folding stability dG": 1.69},
      {"variant": "TTVKLGDIKVTFHNPEKAKKYAQKLAKIYQLTVHVHGDTIHVK", "note": "[D13H]", "folding stability dG": 1.86},
      {"variant": "TTVKLGDIKVTFFNPEKAKKYAQKLAKIYQLTVHVHGDTIHVK", "note": "[D13F]", "folding stability dG": 1.93},
      {"variant": "TTVKLGDIKVTFENPEKAKKYAQKLAKIYQLTVHVHGDTIHVK", "note": "[D13E]", "folding stability dG": 1.9},
      {"variant": "TTVKLGDIKVTFNNPEKAKKYAQKLAKIYQLTVHVHGDTIHVK", "note": "[D13N]", "folding stability dG": 1.98},
      {"variant": "TTVKLGDIKVTFLNPEKAKKYAQKLAKIYQLTVHVHGDTIHVK", "note": "[D13L]", "folding stability dG": 2.08},
      {"variant": "TTVKLGDIKVTFINPEKAKKYAQKLAKIYQLTVHVHGDTIHVK", "note": "[D13I]", "folding stability dG": 1.96},
      {"variant": "TTVKLGDIKVTFVNPEKAKKYAQKLAKIYQLTVHVHGDTIHVK", "note": "[D13V]", "folding stability dG": 1.89},
      {"variant": "TTVKLGDIKVTFMNPEKAKKYAQKLAKIYQLTVHVHGDTIHVK", "note": "[D13M]", "folding stability dG": 2.12},
      {"variant": "TTVKLGDIKVTFYNPEKAKKYAQKLAKIYQLTVHVHGDTIHVK", "note": "[D13Y]", "folding stability dG": 1.85},
      {"variant": "TTVKLGDIKVTFCNPEKAKKYAQKLAKIYQLTVHVHGDTIHVK", "note": "[D13C]", "folding stability dG": 2.6},
      {"variant": "TTVKLGDIKVTFTNPEKAKKYAQKLAKIYQLTVHVHGDTIHVK", "note": "[D13T]", "folding stability dG": 2.16},
      {"variant": "TTVKLGDIKVTFSNPEKAKKYAQKLAKIYQLTVHVHGDTIHVK", "note": "[D13S]", "folding stability dG": 2.25},
      {"variant": "TTVKLGDIKVTFWNPEKAKKYAQKLAKIYQLTVHVHGDTIHVK", "note": "[D13W]", "folding stability dG": 2.01},
      {"variant": "TTVKLGDIKVTFDNPFKAKKYAQKLAKIYQLTVHVHGDTIHVK", "note": "[E16F]", "folding stability dG": 1.9},
      {"variant": "TTVKLGDIKVTFDNPWKAKKYAQKLAKIYQLTVHVHGDTIHVK", "note": "[E16W]", "folding stability dG": 1.93},
      {"variant": "TTVKLGDIKVTFDNPMKAKKYAQKLAKIYQLTVHVHGDTIHVK", "note": "[E16M]", "folding stability dG": 1.91},
      {"variant": "TTVKLGDIKVTFDNPNKAKKYAQKLAKIYQLTVHVHGDTIHVK", "note": "[E16N]", "folding stability dG": 1.7},
      {"variant": "TTVKLGDIKVTFDNPPKAKKYAQKLAKIYQLTVHVHGDTIHVK", "note": "[E16P]", "folding stability dG": 0.35},
      {"variant": "TTVKLGDIKVTFDNPLKAKKYAQKLAKIYQLTVHVHGDTIHVK", "note": "[E16L]", "folding stability dG": 1.92},
      {"variant": "TTVKLGDIKVTFDNPIKAKKYAQKLAKIYQLTVHVHGDTIHVK", "note": "[E16I]", "folding stability dG": 1.98},
      {"variant": "TTVKLGDIKVTFDNPSKAKKYAQKLAKIYQLTVHVHGDTIHVK", "note": "[E16S]", "folding stability dG": 1.7},
      {"variant": "TTVKLGDIKVTFDNPVKAKKYAQKLAKIYQLTVHVHGDTIHVK", "note": "[E16V]", "folding stability dG": 1.85},
      {"variant": "TTVKLGDIKVTFDNPDKAKKYAQKLAKIYQLTVHVHGDTIHVK", "note": "[E16D]", "folding stability dG": 1.96},
      {"variant": "TTVKLGDIKVTFDNPKKAKKYAQKLAKIYQLTVHVHGDTIHVK", "note": "[E16K]", "folding stability dG": 1.91},
      {"variant": "TTVKLGDIKVTFDNPTKAKKYAQKLAKIYQLTVHVHGDTIHVK", "note": "[E16T]", "folding stability dG": 1.77},
      {"variant": "TTVKLGDIKVTFDNPCKAKKYAQKLAKIYQLTVHVHGDTIHVK", "note": "[E16C]", "folding stability dG": 2.66},
      {"variant": "TTVKLGDIKVTFDNPAKAKKYAQKLAKIYQLTVHVHGDTIHVK", "note": "[E16A]", "folding stability dG": 1.94},
      {"variant": "TTVKLGDIKVTFDNPQKAKKYAQKLAKIYQLTVHVHGDTIHVK", "note": "[E16Q]", "folding stability dG": 1.89},
      {"variant": "TTVKLGDIKVTFDNPYKAKKYAQKLAKIYQLTVHVHGDTIHVK", "note": "[E16Y]", "folding stability dG": 1.9}
    ]}
  ]
}
